One block for each substance: values may come before it.
Assays:
GST-Casp8p41 = GST-Casp8p41 (UniProt Q14790); assay: SPR, GST-Bcl-2 R146A over immobilized Casp8p41
GST-Bcl-xL = GST-Bcl-xL (UniProt Q07817); assay: SPR (Biacore 3000), GST-Bcl-xL binding to GST-Casp8p41, mean of 3 experiments; target Bcl-xL
GST-Bcl-2 (human) [1] = target: GST-Bcl-2 (human) (UniProt P10415); assay: SPR (Biacore 3000), GST-Bcl-2 injected over immobilized GST-Casp8p41, mean of 3 experiments; target Bcl-2
GST-Mcl-1 = GST-Mcl-1 (UniProt Q07820); assay: SPR (Biacore 3000), GST-Mcl-1 binding to GST-Casp8p41, mean of 3 experiments; target Mcl-1
Chain of GST-Mcl-1 (Q07820 1-327): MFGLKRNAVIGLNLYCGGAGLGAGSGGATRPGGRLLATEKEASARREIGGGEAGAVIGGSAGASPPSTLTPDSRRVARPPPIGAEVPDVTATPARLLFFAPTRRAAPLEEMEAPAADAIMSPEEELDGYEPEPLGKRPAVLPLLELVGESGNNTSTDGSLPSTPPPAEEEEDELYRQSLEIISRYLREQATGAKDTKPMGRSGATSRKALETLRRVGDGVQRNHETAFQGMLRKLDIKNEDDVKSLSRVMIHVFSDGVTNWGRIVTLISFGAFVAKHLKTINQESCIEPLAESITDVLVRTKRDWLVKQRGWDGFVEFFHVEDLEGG

GST-Bcl-2 (human) [2] = target: GST-Bcl-2 (human) (UniProt P10415); assay: SPR, GST-Casp8p41 Val150Glu/Leu157Lys over immobilized GST-Bcl-2

Chain of GST-Bcl-2 (human) (P10415 1-218): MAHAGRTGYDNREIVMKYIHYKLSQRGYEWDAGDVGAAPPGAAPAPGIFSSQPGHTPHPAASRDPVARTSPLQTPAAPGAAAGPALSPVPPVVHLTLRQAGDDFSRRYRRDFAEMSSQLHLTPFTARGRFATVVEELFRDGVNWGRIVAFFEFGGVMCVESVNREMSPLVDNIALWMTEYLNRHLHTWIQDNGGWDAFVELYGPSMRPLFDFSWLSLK
Chain of GST-Bcl-xL (Q07817 1-212): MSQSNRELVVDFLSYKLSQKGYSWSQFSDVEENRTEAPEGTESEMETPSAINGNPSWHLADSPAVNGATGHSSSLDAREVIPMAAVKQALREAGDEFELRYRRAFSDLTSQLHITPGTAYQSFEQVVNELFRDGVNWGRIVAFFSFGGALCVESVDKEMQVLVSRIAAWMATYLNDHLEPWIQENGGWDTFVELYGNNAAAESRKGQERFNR

fold decrease in affinity against wild-type Bcl-2 (GST-Casp8p41): 250 fold
Substance: GST-Bcl-2 R146A (from UniProt P10415 1-218)

Kd (GST-Bcl-xL): 11 nM
Kd (GST-Bcl-2 (human) [1]): 13 nM
Kd (GST-Mcl-1): 8 nM
Substance: GST-Casp8p41 (from UniProt Q14790 1-479)

fold decrease in affinity against wild-type Casp8p41 (GST-Bcl-2 (human) [2]): > 300 fold
Substance: GST-Casp8p41 Val150Glu/Leu157Lys (from UniProt Q14790 1-479)

Reference: patent US20240374532A1
